Literature values, collected in article PMC3826259.

How the values were obtained:
[1] = biological target: HIV-1 protease mature PR (Human immunodeficiency virus 1) (UniProt O93215)
[2] = biological target: p6*-PR precursor p6*-PR (Human immunodeficiency virus 1) (UniProt O93215)

| Substance | Kd [1] [nM] | Kd [2] [nM] |
| --- | --- | --- |
| HIV-1 protease mature PR (from UniProt O93215) | < 5 | – |
| p6*-PR precursor p6*-PR (from UniProt O93215) | – | 700 |
